Experiments:
BSA [1] = target: BSA (UniProt P02769); assay: ELISA on coated BSA control, anti-myc detection; 2ng antibody added
[2] = target: Human CD79A+CD79B antigen (human) (UniProt P11912); assay: ELISA on coated antigen, anti-myc detection; 2ng antibody added
[3] = target: T1, Mouse CD79A+CD79B antigen (mouse) (UniProt P11911); assay: as above
T1 sequence (looked up) 1: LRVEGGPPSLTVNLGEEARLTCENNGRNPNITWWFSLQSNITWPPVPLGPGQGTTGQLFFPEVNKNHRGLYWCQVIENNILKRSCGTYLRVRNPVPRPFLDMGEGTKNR
T1 sequence (looked up) 2: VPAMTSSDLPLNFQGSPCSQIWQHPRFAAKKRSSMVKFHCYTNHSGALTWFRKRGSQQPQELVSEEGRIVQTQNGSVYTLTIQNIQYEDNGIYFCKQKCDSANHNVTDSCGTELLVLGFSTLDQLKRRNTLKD

[4] = target: Human CD79B Protein, His Tag (MALS verified), Cat. No. #CDB-H52H3-1mg, ACRO (human) (UniProt P40259); assay: as above
[5] = target: Human CD79A+CD79B antigen (human) (UniProt P11912); assay: ELISA on coated antigen, anti-myc detection; 200pg antibody added
[6] = target: T1, Mouse CD79A+CD79B antigen (mouse); assay: as above
[7] = target: Human CD79B Protein, His Tag (MALS verified), Cat. No. #CDB-H52H3-1mg, ACRO (human) (UniProt P40259); assay: as above
[8] = target: Human CD79A+CD79B antigen (human) (UniProt P11912); assay: ELISA on coated antigen, anti-myc detection; 20ug antibody added
[9] = target: T1, Mouse CD79A+CD79B antigen (mouse); assay: as above
[10] = target: Human CD79B Protein, His Tag (MALS verified), Cat. No. #CDB-H52H3-1mg, ACRO (human) (UniProt P40259); assay: as above
BSA [11] = target: BSA (UniProt P02769); assay: ELISA on coated BSA control, anti-myc detection; 2ug antibody added
BSA [12] = target: BSA (UniProt P02769); assay: ELISA on coated BSA control, anti-myc detection; 200pg antibody added
[13] = target: Human CD79A+CD79B antigen (human) (UniProt P11912); assay: ELISA on coated antigen, anti-myc detection; 20ng antibody added
[14] = target: T1, Mouse CD79A+CD79B antigen (mouse); assay: as above
[15] = target: Human CD79B Protein, His Tag (MALS verified), Cat. No. #CDB-H52H3-1mg, ACRO (human) (UniProt P40259); assay: as above
[16] = target: T2, human CD79B antigen (a full-length protein containing signal peptide, UniProt ID: P40259) on cells (human, UniProt P40259 29-229); assay: flow cytometry on HEK-293T cells overexpressing CD79B-GFP, 0.1 mg/mL, APC-His tag antibody
T2 construct: whole, on cells; Used for the flow cytometry on transfected HEK-293T cells; F2A residues left at the C-terminus after cleavage are not described; also called CD79B-GFP molecule; HEK-293T cells overexpressing the CD79B-GFP molecule
T2 sequence (looked up): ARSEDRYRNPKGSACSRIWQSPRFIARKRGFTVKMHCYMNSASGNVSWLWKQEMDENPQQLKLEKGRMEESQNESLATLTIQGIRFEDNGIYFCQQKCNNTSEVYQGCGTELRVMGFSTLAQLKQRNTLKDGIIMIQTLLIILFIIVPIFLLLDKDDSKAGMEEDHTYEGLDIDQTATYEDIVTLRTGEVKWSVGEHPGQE

Mouse CD79B antigen [17] = target: T3, Mouse CD79B antigen (mouse, UniProt P15530 26-158, limits assumed); assay: ELISA on coated antigen, anti-myc detection
T3 sequence (looked up): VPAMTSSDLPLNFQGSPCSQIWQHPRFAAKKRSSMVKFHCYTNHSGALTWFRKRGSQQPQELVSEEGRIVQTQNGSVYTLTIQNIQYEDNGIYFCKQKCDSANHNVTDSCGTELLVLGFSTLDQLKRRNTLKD

[18] = target: Human CD79A+CD79B antigen (human) (UniProt P11912); assay: ELISA on coated antigen, anti-myc detection; 200ng antibody added
[19] = target: T1, Mouse CD79A+CD79B antigen (mouse); assay: as above
[20] = target: Human CD79B Protein, His Tag (MALS verified), Cat. No. #CDB-H52H3-1mg, ACRO (human) (UniProt P40259); assay: as above
[21] = target: Human CD79A+CD79B antigen (human) (UniProt P11912); assay: ELISA on coated antigen, anti-myc detection; 2ug antibody added
[22] = target: T1, Mouse CD79A+CD79B antigen (mouse); assay: as above
[23] = target: Human CD79B Protein, His Tag (MALS verified), Cat. No. #CDB-H52H3-1mg, ACRO (human) (UniProt P40259); assay: as above
BSA [24] = target: BSA (UniProt P02769); assay: ELISA on coated BSA control, anti-myc detection; 20ug antibody added
BSA [25] = target: BSA (UniProt P02769); assay: ELISA on coated BSA control, anti-myc detection; 20ng antibody added
BSA [26] = target: BSA (UniProt P02769); assay: ELISA on coated BSA control, anti-myc detection; 200ng antibody added
Mouse CD79B antigen [27] = target: T3, Mouse CD79B antigen; assay: ELISA on coated antigen, anti-myc detection; 2ng antibody added
Mouse CD79B antigen [28] = target: T3, Mouse CD79B antigen; assay: ELISA on coated antigen, anti-myc detection; 200pg antibody added
Mouse CD79B antigen [29] = target: T3, Mouse CD79B antigen; assay: ELISA on coated antigen, anti-myc detection; 20ug antibody added
Mouse CD79B antigen [30] = target: T3, Mouse CD79B antigen; assay: ELISA on coated antigen, anti-myc detection; 20ng antibody added
Mouse CD79B antigen [31] = target: T3, Mouse CD79B antigen; assay: ELISA on coated antigen, anti-myc detection; 200ng antibody added
Mouse CD79B antigen [32] = target: T3, Mouse CD79B antigen; assay: ELISA on coated antigen, anti-myc detection; 2ug antibody added

Chain of BSA (P02769 25-607 limits assumed): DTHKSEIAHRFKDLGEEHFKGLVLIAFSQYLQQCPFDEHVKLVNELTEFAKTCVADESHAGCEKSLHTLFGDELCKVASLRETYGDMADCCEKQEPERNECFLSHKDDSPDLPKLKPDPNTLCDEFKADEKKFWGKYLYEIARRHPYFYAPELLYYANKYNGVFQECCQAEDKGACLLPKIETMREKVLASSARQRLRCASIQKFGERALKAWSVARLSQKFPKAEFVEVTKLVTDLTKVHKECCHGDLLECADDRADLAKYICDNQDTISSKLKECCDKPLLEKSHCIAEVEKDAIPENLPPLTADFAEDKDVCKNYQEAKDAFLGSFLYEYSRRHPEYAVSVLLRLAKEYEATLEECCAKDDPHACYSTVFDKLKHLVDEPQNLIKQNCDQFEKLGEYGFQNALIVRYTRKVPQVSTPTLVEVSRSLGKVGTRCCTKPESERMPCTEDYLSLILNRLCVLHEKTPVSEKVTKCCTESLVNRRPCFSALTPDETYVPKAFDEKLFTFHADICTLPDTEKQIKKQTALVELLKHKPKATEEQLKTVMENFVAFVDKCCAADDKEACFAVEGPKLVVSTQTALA

B1: anti-CD79B single-domain antibody JYB14 (VHH)
VHH: DVQLQESGGGLVQPGGSLSLTCTASISSLTIWVRAWHRQAPGKQRELVAAINSDGQTMYADSVKGRFTISRDNAKTTVSLQMDSLKPEDTAVYYCNVVTPNGQQYWGQGTQVTVSS
notes: Alpaca VHH from a phage library; ELISA detected with an anti-myc antibody; a myc tag is not described; not shown: His-tag protein at the C-terminal end
OD450 nm (BSA [1]): 0.0474 OD450
OD450 nm [2]: 0.0603 OD450
OD450 nm [3]: 0.0584 OD450
OD450 nm [4]: 0.0507 OD450
OD450 nm [5]: 0.0561 OD450
OD450 nm [6]: 0.0609 OD450
OD450 nm [7]: 0.0501 OD450
OD450 nm [8]: 0.855 OD450
OD450 nm [9]: 0.117 OD450
OD450 nm [10]: 0.495 OD450
OD450 nm (BSA [11]): 0.0506 OD450
OD450 nm (BSA [12]): 0.0489 OD450
OD450 nm [13]: 0.116 OD450
OD450 nm [14]: 0.0578 OD450
OD450 nm [15]: 0.139 OD450
binding result [16]: binds
binding result (Mouse CD79B antigen [17]): no binding (tested: 20ug)
OD450 nm [18]: 0.421 OD450
OD450 nm [19]: 0.0597 OD450
OD450 nm [20]: 0.321 OD450
OD450 nm [21]: 0.634 OD450
OD450 nm [22]: 0.0726 OD450
OD450 nm [23]: 0.346 OD450
OD450 nm (BSA [24]): 0.0489 OD450
OD450 nm (BSA [25]): 0.0476 OD450
OD450 nm (BSA [26]): 0.0493 OD450

B2: anti-CD79B single-domain antibody JYB8 (VHH, not shown: small tags and cut ends)
VHH: DVQLQESGGGLMQPGGSLSLTCTASISSLSIWVRAWHRQAPGKQRELVAAINSDGQTMYADSVKGRFTISRDSAKTTVSLQMDSLKPEDTAVYYCNVVTPKGQQYWGQGTQVTVSS
OD450 nm (BSA [1]): 0.0474 OD450
OD450 nm (Mouse CD79B antigen [27]): 0.0512 OD450
OD450 nm [2]: 0.0544 OD450
OD450 nm [3]: 0.0543 OD450
OD450 nm [4]: 0.06 OD450
OD450 nm (Mouse CD79B antigen [28]): 0.0485 OD450
OD450 nm [5]: 0.0521 OD450
OD450 nm [6]: 0.0619 OD450
OD450 nm [7]: 0.0418 OD450
OD450 nm (Mouse CD79B antigen [29]): 0.229 OD450
OD450 nm [8]: 0.922 OD450
OD450 nm [9]: 0.356 OD450
OD450 nm [10]: 0.596 OD450
OD450 nm (BSA [11]): 0.0582 OD450
OD450 nm (BSA [12]): 0.0534 OD450
OD450 nm (Mouse CD79B antigen [30]): 0.0551 OD450
OD450 nm [13]: 0.115 OD450
OD450 nm [14]: 0.0553 OD450
OD450 nm [15]: 0.145 OD450
OD450 nm (Mouse CD79B antigen [31]): 0.0622 OD450
OD450 nm [18]: 1.43 OD450
OD450 nm [19]: 0.068 OD450
OD450 nm [20]: 0.308 OD450
OD450 nm (Mouse CD79B antigen [32]): 0.178 OD450
OD450 nm [21]: 0.802 OD450
OD450 nm [22]: 0.206 OD450
OD450 nm [23]: 0.506 OD450
OD450 nm (BSA [24]): 0.0537 OD450
OD450 nm (BSA [25]): 0.0554 OD450
OD450 nm (BSA [26]): 0.052 OD450

— EP4768505A1 (Shenzhen Genocury Biotech Co., Ltd, dated 2026)
